System: Escherichia coli TOP10
Test: shrunken log2 fold change of peptide-encoding DNA abundance (4.5 h post-induction vs induction); higher = less antimicrobial activity (less host growth inhibition)
Conditions: time post-induction: 4.5 h; library: site-saturation at positions 5, 18, 19, 20
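Also: peptides expressed intracellularly from a pBAD plasmid library in pooled LB shake-flask culture, induced with 0.3% L-arabinose, DNA abundance read by NGS, three biological replicates, DESeq2 with apeglm shrinkage.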

Sequence	shrunken log2 fold change
RRIRYRPPRLPRPRPRPTYGPRP	-0.196
RRIRDRPPRLPRPRPRPKEKPRP	-0.0263
RRIRLRPPRLPRPRPRPGVFPRP	-0.0879
RRIRRRPPRLPRPRPRPGCWPRP	0.561
RRIRYRPPRLPRPRPRPTIIPRP	-0.669
RRIRMRPPRLPRPRPRPEIRPRP	-0.0241
RRIRRRPPRLPRPRPRPSDMPRP	-0.463
RRIRVRPPRLPRPRPRPLQNPRP	0.0527
RRIRFRPPRLPRPRPRPPNSPRP	-0.544
RRIRHRPPRLPRPRPRPSFFPRP	-0.41
RRIRIRPPRLPRPRPRPHSVPRP	-0.0376
RRIRCRPPRLPRPRPRPLCQPRP	-0.949
RRIRTRPPRLPRPRPRPCVVPRP	-0.0223
RRIRFRPPRLPRPRPRPEHNPRP	-0.489
RRIRCRPPRLPRPRPRPISMPRP	-0.65
RRIRTRPPRLPRPRPRPVDIPRP	-0.282
RRIRIRPPRLPRPRPRPAWIPRP	-0.187
RRIRDRPPRLPRPRPRPILIPRP	-0.0335
RRIRRRPPRLPRPRPRPNMIPRP	-0.914
RRIRKRPPRLPRPRPRPARQPRP	0.356
RRIRSRPPRLPRPRPRPGYYPRP	-0.457
RRIRYRPPRLPRPRPRPYYQPRP	-0.462
RRIRWRPPRLPRPRPRPGRSPRP	0.0808
RRIRNRPPRLPRPRPRPNMYPRP	-0.392
RRIRERPPRLPRPRPRPIFLPRP	-0.288

Sequence	shrunken log2 fold change
RRIRRRPPRLPRPRPRPWPKPRP	0.13
RRIRLRPPRLPRPRPRPWLFPRP	0.193
RRIRDRPPRLPRPRPRPGSYPRP	-0.0689
RRIRQRPPRLPRPRPRPNNDPRP	-0.624
RRIRCRPPRLPRPRPRPAFCPRP	0.172
RRIRTRPPRLPRPRPRPVIDPRP	-0.0797
RRIRNRPPRLPRPRPRPPFVPRP	0.164
RRIRIRPPRLPRPRPRPIAKPRP	-0.0645
RRIRWRPPRLPRPRPRPMVKPRP	0.17
RRIRKRPPRLPRPRPRPTDIPRP	-0.0678
RRIRWRPPRLPRPRPRPRWLPRP	0.224
RRIRHRPPRLPRPRPRPNSMPRP	-0.401
RRIRIRPPRLPRPRPRPHYCPRP	-0.0772
RRIRHRPPRLPRPRPRPCGKPRP	-0.00804
RRIRNRPPRLPRPRPRPPYSPRP	-0.604
RRIRIRPPRLPRPRPRPDQRPRP	0.0228
RRIRWRPPRLPRPRPRPIHYPRP	-1.07
RRIRSRPPRLPRPRPRPENEPRP	-0.0857
RRIRRRPPRLPRPRPRPATEPRP	0.421
RRIRSRPPRLPRPRPRPQVQPRP	0.374
RRIRQRPPRLPRPRPRPVPDPRP	0.106
RRIRRRPPRLPRPRPRPCEAPRP	0.127
RRIRMRPPRLPRPRPRPKKYPRP	1.26
RRIRLRPPRLPRPRPRPAGAPRP	0.632
RRIRFRPPRLPRPRPRPRQYPRP	-0.465

Sequence	shrunken log2 fold change
RRIRSRPPRLPRPRPRPCELPRP	0.0778
RRIRPRPPRLPRPRPRPEIEPRP	0.0922
RRIRNRPPRLPRPRPRPESNPRP	0.0856
RRIRQRPPRLPRPRPRPTGPPRP	0.22
RRIRGRPPRLPRPRPRPELMPRP	0.853
RRIRTRPPRLPRPRPRPLSPPRP	0.0169
RRIRERPPRLPRPRPRPSQEPRP	-0.0844
RRIRFRPPRLPRPRPRPFPWPRP	-0.211
RRIRTRPPRLPRPRPRPKLQPRP	-0.114
RRIRIRPPRLPRPRPRPLADPRP	-0.0519
RRIRQRPPRLPRPRPRPQAAPRP	0.0499
RRIRARPPRLPRPRPRPLIPPRP	0.449
RRIRNRPPRLPRPRPRPPHYPRP	-0.245
RRIRYRPPRLPRPRPRPRQCPRP	-0.0146
RRIRKRPPRLPRPRPRPMRWPRP	1.41
RRIRWRPPRLPRPRPRPGDFPRP	0.564
RRIRGRPPRLPRPRPRPAELPRP	0.472
RRIRERPPRLPRPRPRPLADPRP	-0.14
RRIRYRPPRLPRPRPRPVGRPRP	0.0286
RRIRGRPPRLPRPRPRPNFGPRP	0.128
RRIRPRPPRLPRPRPRPRRRPRP	0.41
RRIRRRPPRLPRPRPRPTMIPRP	-0.195
RRIRDRPPRLPRPRPRPFPWPRP	-0.192
RRIRCRPPRLPRPRPRPPNEPRP	0.309
RRIRKRPPRLPRPRPRPKDIPRP	-0.261

Sequence	shrunken log2 fold change
RRIRRRPPRLPRPRPRPRYDPRP	0.0442
RRIRARPPRLPRPRPRPKKDPRP	0.468
RRIRYRPPRLPRPRPRPRDAPRP	-0.103
RRIRIRPPRLPRPRPRPFLRPRP	-0.2
RRIRSRPPRLPRPRPRPMMAPRP	-0.199
RRIRDRPPRLPRPRPRPPCTPRP	0.00986
RRIRGRPPRLPRPRPRPPQLPRP	0.824
RRIRHRPPRLPRPRPRPIIFPRP	-0.249
RRIRIRPPRLPRPRPRPTVHPRP	0.0548
RRIRIRPPRLPRPRPRPKDFPRP	-0.457
RRIRKRPPRLPRPRPRPIRPPRP	0.012
RRIRIRPPRLPRPRPRPHNCPRP	-0.0359
RRIRTRPPRLPRPRPRPLTAPRP	-0.32
RRIRMRPPRLPRPRPRPIDYPRP	-0.0477
RRIRVRPPRLPRPRPRPSWPPRP	0.493
RRIRGRPPRLPRPRPRPCTGPRP	0.11
RRIRKRPPRLPRPRPRPPARPRP	1.16
RRIRRRPPRLPRPRPRPYNQPRP	-0.207
RRIRRRPPRLPRPRPRPAEGPRP	-0.0943
RRIRWRPPRLPRPRPRPSTYPRP	-0.0575
RRIRTRPPRLPRPRPRPHLDPRP	-0.175
RRIRQRPPRLPRPRPRPVMAPRP	-0.38
RRIRNRPPRLPRPRPRPRYMPRP	-1.3
RRIRYRPPRLPRPRPRPQCAPRP	-0.247
RRIRWRPPRLPRPRPRPIQYPRP	-0.101

Sequence	shrunken log2 fold change
RRIRQRPPRLPRPRPRPGRMPRP	0.0366
RRIRFRPPRLPRPRPRPQPVPRP	0.356
RRIRERPPRLPRPRPRPQTIPRP	-0.378
RRIRERPPRLPRPRPRPNIFPRP	-0.302
RRIRSRPPRLPRPRPRPLDNPRP	-0.339
RRIRRRPPRLPRPRPRPKAVPRP	0.0693
RRIRERPPRLPRPRPRPRWCPRP	0.0485
RRIRHRPPRLPRPRPRPVFWPRP	0.0698
RRIRNRPPRLPRPRPRPWTDPRP	0.0246
RRIRFRPPRLPRPRPRPFGKPRP	-0.00111
RRIRARPPRLPRPRPRPSGAPRP	0.38
RRIRSRPPRLPRPRPRPIYEPRP	-0.134
RRIRWRPPRLPRPRPRPDFSPRP	-0.0269
RRIRYRPPRLPRPRPRPDVLPRP	0.0494
RRIRERPPRLPRPRPRPHVWPRP	0.191
RRIRSRPPRLPRPRPRPETEPRP	0.997
RRIRGRPPRLPRPRPRPKCEPRP	1.14
RRIRHRPPRLPRPRPRPHFHPRP	-0.648
RRIRRRPPRLPRPRPRPWCMPRP	-0.107
RRIRSRPPRLPRPRPRPWSYPRP	0.0308
RRIRMRPPRLPRPRPRPMKDPRP	0.251
RRIRDRPPRLPRPRPRPVCFPRP	0.599
RRIRNRPPRLPRPRPRPQWSPRP	0.129
RRIRPRPPRLPRPRPRPDFGPRP	-0.19
RRIRLRPPRLPRPRPRPKWNPRP	-0.299

Sequence	shrunken log2 fold change
RRIRSRPPRLPRPRPRPSCMPRP	-0.129
RRIRNRPPRLPRPRPRPAIEPRP	0.00973
RRIRGRPPRLPRPRPRPECKPRP	0.841
RRIRNRPPRLPRPRPRPFKLPRP	-0.155
RRIRRRPPRLPRPRPRPYSVPRP	0.0601
RRIRFRPPRLPRPRPRPGTWPRP	-0.153
RRIRMRPPRLPRPRPRPNDLPRP	0.0853
RRIRPRPPRLPRPRPRPLCVPRP	-0.214
RRIRGRPPRLPRPRPRPWCPPRP	0.236
RRIRYRPPRLPRPRPRPELMPRP	-0.128
RRIRCRPPRLPRPRPRPTAAPRP	1.33
RRIRLRPPRLPRPRPRPVYTPRP	-0.0286
RRIRHRPPRLPRPRPRPCKMPRP	-0.134
RRIRKRPPRLPRPRPRPIYCPRP	-0.0201
RRIRGRPPRLPRPRPRPYHKPRP	-0.331
RRIRMRPPRLPRPRPRPDVTPRP	0.109
RRIRWRPPRLPRPRPRPAKQPRP	0.0759
RRIRTRPPRLPRPRPRPGQDPRP	-0.102
RRIRERPPRLPRPRPRPWKYPRP	-0.0185
RRIRARPPRLPRPRPRPCYIPRP	-0.607
RRIRSRPPRLPRPRPRPISYPRP	-0.117
RRIRPRPPRLPRPRPRPQDIPRP	-0.0806
RRIRYRPPRLPRPRPRPTRDPRP	-0.0311
RRIRLRPPRLPRPRPRPYQFPRP	-0.0128
RRIRWRPPRLPRPRPRPPTGPRP	0.23

From the supplement of paper PMC9112550, “Optimization of the antimicrobial peptide Bac7 by deep mutational scanning” (BMC Biology, 2022)
